This passage reports stoichiometry N results from PMC2323294.

Where “and” joins values, the source holds several entries; their conditions need not be identical. Equal entries are not always repeated.

As usually defined, the stoichiometry N is a count of units in the complex or per binding partner.

The test addresses recombinant human gC1qR/HABP1/p32 (mature, amino acids 74-282) (human) (UniProt Q07021). In words: SEC; gel permeation chromatography of purified recombinant gC1qR/HABP1 on a Superdex 200 HR10/30 column, against molecular weight standards. For orientation: In gel filtration, larger molecules generally elute earlier.

As to “recombinant human gC1qR/HABP1/p32 (mature, amino acids 74-282) (from UniProt Q07021 74-282) (natural protein; other documents disagree on this pair)”, the stoichiometry N was 3 and 2.
